{
  "source": "patent US20220348651A1",
  "about": "(Novartis, published 2022)",
  "key": {"[1]": {"molecular_target": "recombinant human ENTPD2 extracellular domain (residues 29-462) with C-terminal Avi-His6 tag (human, UniProt Q9Y5L3 29-462, biotinylated on the AviTag in the epitope binning assay)", "sequence (Q9Y5L3 29-462)": "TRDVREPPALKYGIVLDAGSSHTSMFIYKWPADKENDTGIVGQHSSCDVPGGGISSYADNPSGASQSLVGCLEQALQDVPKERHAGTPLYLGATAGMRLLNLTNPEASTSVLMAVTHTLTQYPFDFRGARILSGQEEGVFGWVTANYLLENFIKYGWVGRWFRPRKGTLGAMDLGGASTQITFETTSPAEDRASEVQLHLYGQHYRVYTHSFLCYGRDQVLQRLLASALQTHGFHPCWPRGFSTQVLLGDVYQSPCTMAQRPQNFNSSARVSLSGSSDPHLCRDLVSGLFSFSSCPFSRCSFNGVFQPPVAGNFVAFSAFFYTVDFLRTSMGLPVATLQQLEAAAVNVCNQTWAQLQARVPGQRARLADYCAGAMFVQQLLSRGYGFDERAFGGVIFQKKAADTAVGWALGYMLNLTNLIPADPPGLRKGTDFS", "assay": "cell-based or functional assay"}, "[2]": {"molecular_target": "human FcγRIIIa, V158 (high affinity variant) on engineered Jurkat cells (human, UniProt P08637 17-254)", "sequence (P08637 other isoform, or with tags, fused parts or gaps mutant limits assumed)": "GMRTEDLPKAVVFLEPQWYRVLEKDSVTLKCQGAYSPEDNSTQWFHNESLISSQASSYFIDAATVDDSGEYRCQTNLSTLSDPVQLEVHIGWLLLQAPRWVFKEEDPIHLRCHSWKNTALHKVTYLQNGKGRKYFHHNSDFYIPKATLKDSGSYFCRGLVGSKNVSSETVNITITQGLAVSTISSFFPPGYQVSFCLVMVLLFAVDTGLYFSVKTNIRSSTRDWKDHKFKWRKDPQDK", "assay": "cell-based or functional assay"}},
  "note": "Where “and” joins values, the source holds several entries; their conditions need not be identical. Equal values may be shown once.",
  "data": [
    {"binder": "ANTI-HUMAN ENTPD2 MAB1 (antibody, human IgG1, kappa, humanized from mAb17; human IgG1, kappa; also called anti-ENTPD2 mAb1) heavy: not shown light: DIQLTQSPSSLSASVGDRVTITCSASSSVSYIHWFQQKPGKAPKLLIYSTSNLASGVPSRFSGSGSGTFFTLTISSLQPEDFATYFCHQWSSYPWTFGQGTKVEIKRTVAAPSVFIFPPSDEQLKSGTASVVCLLNNFYPREAKVQWKVDNALQSGNSQESVTEQDSKDSTYSLSSTLTLSKADYEKHKVYACEVTHQGLSSPVTKSFNRGEC", "values": [
      {"measurement": "IC50, ENTPD2 Biochemical Assay at 1 uM ATP", "setting": "[1]", "result": 0.52, "unit": "nM"},
      {"measurement": "EC50, Jurkat FcγRIIIa V158 NFAT-luciferase reporter with RKO cells", "setting": "[2]", "result": "17.3 nM and 2.55 µg/mL"}
    ]}
  ]
}
